What was measured:
[1] = system: AncSZ; experiment: phosphorylation enrichment, bacterial display (enrichment ratio); higher = better substrate or ligand; peptides without Tyr show the background
[2] = biological target: EPHB1 (UniProt P54762); experiment: as above
[3] = biological target: EPHB2 (UniProt P29323); experiment: as above
[4] = biological target: FGFR1 (UniProt P11362); experiment: as above
[5] = biological target: FGFR3 (UniProt P22607); experiment: as above
[6] = system: Fer (mouse); experiment: as above
[7] = biological target: Fes (UniProt P07332); experiment: as above
[8] = biological target: Fyn (UniProt P06241); experiment: as above
[9] = biological target: Hck (UniProt P08631); experiment: as above
[10] = biological target: Jak2 (UniProt O60674); experiment: as above
[11] = biological target: MERTK (UniProt Q12866); experiment: as above
[12] = system: c-Abl (mouse); experiment: as above
[13] = system: c-Src; experiment: as above
[14] = biological target: Grb2 SH2 (UniProt P62993); experiment: SH2 binding enrichment of the phosphorylated peptide, bacterial display (enrichment ratio); higher = better substrate or ligand; peptides without Tyr show the background
[15] = biological target: SHP2-C SH2; experiment: as above
[16] = biological target: c-Src SH2; experiment: as above
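Throughout, for SH2 binding enrichment of the phosphorylated peptide, bacterial display: peptide library displayed on the E. coli surface as eCPX fusions, selected cells deep-sequenced, score is each peptide's frequency after selection divided by its frequency in the input.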
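Throughout, for phosphorylation enrichment, bacterial display: 11-residue human phosphosite peptides and single-mutation variants displayed on the E. coli surface, counted by deep sequencing, each peptide's frequency after selection divided by its frequency in the unselected input library; frequency after pTyr selection over input frequency; kinase dosed for 20-30% of maximal phosphorylation in three min.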

Hck, sequence (P08631 whole entry, looked up): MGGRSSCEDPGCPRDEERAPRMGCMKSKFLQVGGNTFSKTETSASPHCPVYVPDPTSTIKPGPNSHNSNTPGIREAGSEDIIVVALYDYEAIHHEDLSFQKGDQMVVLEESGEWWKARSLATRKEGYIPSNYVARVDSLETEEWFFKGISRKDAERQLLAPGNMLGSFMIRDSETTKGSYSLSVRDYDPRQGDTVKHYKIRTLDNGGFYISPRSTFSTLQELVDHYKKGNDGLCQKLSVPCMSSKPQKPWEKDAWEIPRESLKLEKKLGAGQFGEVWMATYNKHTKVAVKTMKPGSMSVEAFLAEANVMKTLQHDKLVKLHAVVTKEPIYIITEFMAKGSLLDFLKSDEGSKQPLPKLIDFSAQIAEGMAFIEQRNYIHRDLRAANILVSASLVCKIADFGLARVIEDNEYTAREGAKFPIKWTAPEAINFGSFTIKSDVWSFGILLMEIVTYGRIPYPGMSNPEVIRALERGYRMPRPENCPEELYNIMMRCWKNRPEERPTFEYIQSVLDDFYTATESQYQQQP
FGFR3, sequence (P22607 whole entry, looked up): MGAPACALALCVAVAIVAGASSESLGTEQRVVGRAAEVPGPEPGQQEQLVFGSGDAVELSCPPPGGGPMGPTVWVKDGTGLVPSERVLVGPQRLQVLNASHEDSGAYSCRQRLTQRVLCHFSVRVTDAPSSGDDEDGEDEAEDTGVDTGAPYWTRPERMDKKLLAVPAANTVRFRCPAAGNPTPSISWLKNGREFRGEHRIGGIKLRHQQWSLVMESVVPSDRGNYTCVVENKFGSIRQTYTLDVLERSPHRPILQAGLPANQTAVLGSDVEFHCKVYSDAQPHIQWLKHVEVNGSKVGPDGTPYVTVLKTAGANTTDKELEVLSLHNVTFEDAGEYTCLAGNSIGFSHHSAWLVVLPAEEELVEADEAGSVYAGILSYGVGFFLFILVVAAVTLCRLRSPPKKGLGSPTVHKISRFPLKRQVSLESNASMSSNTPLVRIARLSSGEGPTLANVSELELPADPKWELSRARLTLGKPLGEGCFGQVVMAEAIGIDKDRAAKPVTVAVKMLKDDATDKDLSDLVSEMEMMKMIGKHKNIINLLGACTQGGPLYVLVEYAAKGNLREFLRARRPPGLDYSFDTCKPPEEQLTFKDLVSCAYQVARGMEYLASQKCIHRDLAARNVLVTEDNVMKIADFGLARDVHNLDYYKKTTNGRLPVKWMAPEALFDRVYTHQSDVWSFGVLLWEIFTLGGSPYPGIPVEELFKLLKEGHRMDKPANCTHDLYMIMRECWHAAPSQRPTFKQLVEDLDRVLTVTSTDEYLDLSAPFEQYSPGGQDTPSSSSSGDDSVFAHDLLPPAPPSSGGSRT
EPHB2, sequence (P29323 whole entry, looked up): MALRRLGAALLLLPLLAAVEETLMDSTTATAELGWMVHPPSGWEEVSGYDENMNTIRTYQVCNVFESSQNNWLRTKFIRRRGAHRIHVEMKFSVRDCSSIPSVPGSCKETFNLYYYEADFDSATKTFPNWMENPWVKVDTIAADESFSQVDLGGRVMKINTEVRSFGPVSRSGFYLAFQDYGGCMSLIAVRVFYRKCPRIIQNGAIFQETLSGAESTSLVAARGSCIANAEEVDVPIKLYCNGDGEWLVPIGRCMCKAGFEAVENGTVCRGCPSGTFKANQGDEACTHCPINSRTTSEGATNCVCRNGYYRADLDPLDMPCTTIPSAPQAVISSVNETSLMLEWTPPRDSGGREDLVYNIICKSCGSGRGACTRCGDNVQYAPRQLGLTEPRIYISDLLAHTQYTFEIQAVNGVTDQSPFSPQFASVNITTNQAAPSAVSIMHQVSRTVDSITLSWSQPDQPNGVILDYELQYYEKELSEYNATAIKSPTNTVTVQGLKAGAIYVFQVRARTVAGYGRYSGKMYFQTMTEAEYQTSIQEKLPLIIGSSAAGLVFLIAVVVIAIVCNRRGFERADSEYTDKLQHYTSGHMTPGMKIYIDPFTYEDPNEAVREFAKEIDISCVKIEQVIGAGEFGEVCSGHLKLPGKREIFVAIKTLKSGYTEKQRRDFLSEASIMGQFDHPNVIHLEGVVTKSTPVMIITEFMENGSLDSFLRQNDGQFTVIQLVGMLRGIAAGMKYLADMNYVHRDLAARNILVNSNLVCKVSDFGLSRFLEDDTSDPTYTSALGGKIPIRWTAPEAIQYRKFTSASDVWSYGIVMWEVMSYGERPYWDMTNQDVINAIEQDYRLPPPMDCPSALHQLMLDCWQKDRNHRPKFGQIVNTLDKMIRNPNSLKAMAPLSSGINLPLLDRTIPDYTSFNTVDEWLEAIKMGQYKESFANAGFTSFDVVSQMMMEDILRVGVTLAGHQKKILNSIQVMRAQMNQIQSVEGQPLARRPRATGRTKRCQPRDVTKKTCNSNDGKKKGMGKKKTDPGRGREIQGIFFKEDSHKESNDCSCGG
Fyn, sequence (P06241 whole entry, looked up): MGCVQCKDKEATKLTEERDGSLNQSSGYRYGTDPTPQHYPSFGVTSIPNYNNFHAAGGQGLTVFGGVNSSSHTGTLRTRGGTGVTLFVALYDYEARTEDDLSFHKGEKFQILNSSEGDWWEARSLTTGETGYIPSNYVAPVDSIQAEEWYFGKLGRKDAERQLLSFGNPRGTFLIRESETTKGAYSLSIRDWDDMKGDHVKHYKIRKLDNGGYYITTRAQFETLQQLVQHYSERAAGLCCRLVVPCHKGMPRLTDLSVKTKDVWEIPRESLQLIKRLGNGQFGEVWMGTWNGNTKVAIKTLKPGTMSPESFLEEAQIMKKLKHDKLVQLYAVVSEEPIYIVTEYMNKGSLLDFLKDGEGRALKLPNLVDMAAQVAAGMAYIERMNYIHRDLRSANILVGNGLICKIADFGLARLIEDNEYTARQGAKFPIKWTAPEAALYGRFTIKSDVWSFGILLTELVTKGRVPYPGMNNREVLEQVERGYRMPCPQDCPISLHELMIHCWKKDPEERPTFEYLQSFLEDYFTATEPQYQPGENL
Jak2, sequence (O60674 whole entry, looked up): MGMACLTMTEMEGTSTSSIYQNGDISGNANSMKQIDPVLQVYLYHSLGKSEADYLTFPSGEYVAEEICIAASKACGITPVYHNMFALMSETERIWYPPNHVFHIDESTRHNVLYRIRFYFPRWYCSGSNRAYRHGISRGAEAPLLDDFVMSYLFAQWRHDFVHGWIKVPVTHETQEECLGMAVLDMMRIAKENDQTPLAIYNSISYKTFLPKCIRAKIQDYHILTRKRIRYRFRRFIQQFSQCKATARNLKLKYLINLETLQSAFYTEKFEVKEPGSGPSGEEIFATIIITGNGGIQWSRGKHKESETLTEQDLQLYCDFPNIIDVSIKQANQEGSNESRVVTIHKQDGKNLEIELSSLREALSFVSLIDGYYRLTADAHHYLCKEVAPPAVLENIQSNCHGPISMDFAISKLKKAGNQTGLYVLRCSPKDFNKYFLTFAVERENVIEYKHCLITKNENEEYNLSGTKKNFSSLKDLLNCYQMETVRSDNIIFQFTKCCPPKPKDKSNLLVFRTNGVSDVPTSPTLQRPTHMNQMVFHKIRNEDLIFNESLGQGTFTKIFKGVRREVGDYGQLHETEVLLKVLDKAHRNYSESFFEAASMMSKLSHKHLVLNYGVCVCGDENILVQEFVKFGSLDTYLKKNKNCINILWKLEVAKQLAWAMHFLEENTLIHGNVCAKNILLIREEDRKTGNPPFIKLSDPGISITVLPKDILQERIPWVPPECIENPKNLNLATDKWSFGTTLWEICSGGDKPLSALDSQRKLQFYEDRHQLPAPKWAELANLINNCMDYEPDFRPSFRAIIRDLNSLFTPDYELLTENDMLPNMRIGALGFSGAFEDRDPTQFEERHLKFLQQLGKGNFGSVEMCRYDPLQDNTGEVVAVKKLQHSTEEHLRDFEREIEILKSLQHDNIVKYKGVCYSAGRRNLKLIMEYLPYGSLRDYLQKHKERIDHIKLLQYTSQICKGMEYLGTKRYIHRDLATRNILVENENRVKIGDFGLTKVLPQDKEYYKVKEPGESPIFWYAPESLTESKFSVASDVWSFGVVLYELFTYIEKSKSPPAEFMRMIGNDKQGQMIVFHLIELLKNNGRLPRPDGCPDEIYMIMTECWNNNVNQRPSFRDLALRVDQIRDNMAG
EPHB1, sequence (P54762 whole entry, looked up): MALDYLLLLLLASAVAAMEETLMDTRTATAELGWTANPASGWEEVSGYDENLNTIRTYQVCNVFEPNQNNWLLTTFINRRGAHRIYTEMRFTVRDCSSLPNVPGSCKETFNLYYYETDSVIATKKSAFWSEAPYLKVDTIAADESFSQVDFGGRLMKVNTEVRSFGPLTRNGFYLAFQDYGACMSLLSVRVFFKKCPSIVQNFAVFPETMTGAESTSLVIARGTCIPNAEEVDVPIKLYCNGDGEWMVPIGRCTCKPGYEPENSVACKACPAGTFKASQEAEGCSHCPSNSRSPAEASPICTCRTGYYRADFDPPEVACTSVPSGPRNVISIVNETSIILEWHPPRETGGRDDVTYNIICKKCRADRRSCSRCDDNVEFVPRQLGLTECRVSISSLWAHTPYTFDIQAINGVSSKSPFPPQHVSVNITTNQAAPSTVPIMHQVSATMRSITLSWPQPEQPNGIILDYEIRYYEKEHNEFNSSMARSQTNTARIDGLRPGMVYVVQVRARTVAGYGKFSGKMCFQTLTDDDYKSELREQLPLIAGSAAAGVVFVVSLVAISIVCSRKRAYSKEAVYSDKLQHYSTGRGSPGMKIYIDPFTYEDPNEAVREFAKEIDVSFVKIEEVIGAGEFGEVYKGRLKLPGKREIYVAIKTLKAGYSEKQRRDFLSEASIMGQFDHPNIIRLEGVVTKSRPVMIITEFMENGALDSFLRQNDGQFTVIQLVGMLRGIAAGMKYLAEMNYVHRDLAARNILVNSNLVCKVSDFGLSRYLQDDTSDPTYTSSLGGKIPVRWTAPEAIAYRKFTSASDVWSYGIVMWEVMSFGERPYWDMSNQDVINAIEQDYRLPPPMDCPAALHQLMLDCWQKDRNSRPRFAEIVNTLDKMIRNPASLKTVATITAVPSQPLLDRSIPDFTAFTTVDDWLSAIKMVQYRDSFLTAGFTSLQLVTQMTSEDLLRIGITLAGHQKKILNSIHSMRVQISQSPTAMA

Sequence | phosphorylation enrichment [1] | phosphorylation enrichment [2] | phosphorylation enrichment [3] | phosphorylation enrichment [4] | phosphorylation enrichment [5] | phosphorylation enrichment [6] | phosphorylation enrichment [7] | phosphorylation enrichment [8] | phosphorylation enrichment [9] | phosphorylation enrichment [10] | phosphorylation enrichment [11] | phosphorylation enrichment [12] | phosphorylation enrichment [13] | SH2 binding enrichment [14] | SH2 binding enrichment [15] | SH2 binding enrichment [16]
LQEQNYLAVDS [FAM114A1_Y115] | 2.1 | 6.07 | 2.83 | 3.67 | 3.19 | 4.67 | 2.5 | 1.47 | 0.946 | 1.39 | 1.17 | 0.817 | 0.673 | 0.725 | 0.53 | 0.644
RVNSAYQDKVS [ACAN_Y100] | 0.849 | 0.642 | 0.648 | 0.513 | 0.567 | 0.437 | 0.796 | 0.517 | 0.396 | 1.36 | 0.498 | 1.06 | 0.484 | 0.784 | 0.679 | 0.455
CVRTIYTIDGS [DCLK2_Y124_G119C] | 0.891 | 0.746 | 0.628 | 0.447 | 1 | 0.505 | 1.06 | 1.32 | 0.683 | 0.807 | 0.481 | 0.799 | 1.97 | 0.702 | 0.432 | 0.529
CFTRQYTLPPG [HSPB1_Y142_K141Q] | 0.976 | 0.577 | 0.57 | 0.553 | 0.656 | 0.496 | 0.943 | 0.388 | 0.497 | 0.901 | 0.399 | 0.722 | 0.361 | 0.773 | 0.794 | 0.523
KLIETYSSKNF [PLP1_Y50_F51S_YF] | 0.654 | 0.769 | 0.618 | 0.446 | 0.46 | 0.388 | 0.996 | 0.504 | 0.519 | 0.59 | 0.401 | 0.588 | 0.451 | 0.713 | 0.472 | 0.422
ARTNEYKIIRS [INA_Y87_T92S] | 0.435 | 0.394 | 0.372 | 0.282 | 0.406 | 0.33 | 0.563 | 0.406 | 0.316 | 0.454 | 0.407 | 0.337 | 0.407 | 1.06 | 0.859 | 0.514
HFGNNYRDVLQ [MACC1_Y803_YF] | 0.851 | 0.648 | 0.627 | 0.711 | 0.68 | 0.558 | 1.72 | 0.614 | 0.594 | 1.06 | 0.64 | 0.848 | 0.65 | 0.909 | 2.13 | 0.472
RPDSPYSRPHD [DOK2_Y271] | 0.71 | 0.258 | 0.49 | 0.364 | 0.485 | 0.379 | 0.519 | 0.317 | 0.367 | 0.436 | 0.369 | 0.419 | 0.372 | 0.729 | 0.422 | 1.29
VGQRPYRPLPE [REEP3_Y170_Q171R] | 0.584 | 0.391 | 0.557 | 0.482 | 0.519 | 0.482 | 0.637 | 0.492 | 0.4 | 0.67 | 0.473 | 0.683 | 0.471 | 0.957 | 0.68 | 0.59
PELINYHQPNS [BTK_Y361_H364P] | 0.928 | 1.04 | 0.727 | 0.723 | 0.857 | 0.678 | 0.908 | 0.597 | 0.734 | 0.829 | 0.657 | 0.574 | 0.8 | 1.07 | 0.763 | 0.704
NCFKYYMSDDI [ATRX_Y204] | 1.33 | 0.748 | 0.625 | 0.959 | 0.931 | 0.496 | 1.51 | 0.491 | 0.548 | 1.32 | 0.562 | 1.17 | 0.811 | 0.97 | 0.799 | 1.52
MPQNEYIELHR [NSA2_Y6] | 0.9 | 0.696 | 0.673 | 1.95 | 1.03 | 0.325 | 0.767 | 0.444 | 0.743 | 0.7 | 0.338 | 0.497 | 0.66 | 0.808 | 0.767 | 0.601
KRRGPYEMSPS [PLPP7_Y172_T174M] | 0.58 | 0.323 | 0.371 | 0.338 | 0.377 | 0.345 | 0.452 | 0.387 | 0.445 | 0.459 | 0.402 | 0.508 | 0.45 | 0.532 | 0.344 | 0.456
EQKKYYNATKK [SCN5A_Y1495_M1498T] | 0.478 | 0.399 | 0.383 | 0.343 | 0.387 | 0.407 | 0.54 | 0.375 | 0.384 | 0.503 | 0.371 | 0.485 | 0.411 | 1.16 | 1.04 | 0.731
GAVGNYSGGLA [MGMT_Y158] | 0.57 | 0.554 | 0.48 | 0.453 | 0.61 | 0.483 | 0.765 | 0.374 | 0.408 | 0.419 | 0.422 | 0.43 | 0.335 | 0.551 | 0.622 | 0.367
NDEDIYKGLPD [VAV3_Y141] | 1.23 | 0.727 | 0.674 | 0.584 | 0.794 | 0.534 | 1.21 | 0.879 | 0.878 | 0.947 | 0.444 | 0.802 | 0.837 | 0.85 | 0.902 | 0.57
LFCLHYFHRTF [SRD5A2_Y91_V89L] | 1.85 | 0.9 | 0.541 | 0.71 | 1.46 | 0.888 | 1.93 | 1.07 | 0.494 | 1.78 | 0.66 | 1.21 | 0.879 | 1.48 | 1.62 | 1.33
SGTFQYIIAKF [FOXL2_Y83_I80T_YF] | 1.09 | 0.448 | 0.491 | 0.494 | 0.793 | 0.473 | 1.27 | 0.532 | 0.418 | 0.953 | 0.393 | 0.878 | 0.366 | 0.699 | 0.572 | 0.58
VGRVGYVSGWG [HP_Y280] | 0.781 | 0.4 | 0.514 | 0.427 | 0.56 | 0.395 | 0.792 | 0.456 | 0.415 | 0.821 | 0.406 | 0.807 | 0.507 | 0.809 | 0.854 | 0.606
TNDRLYLRSLE [MTM1_Y71_Y68D] | 0.881 | 0.514 | 0.452 | 0.438 | 0.503 | 0.411 | 0.978 | 0.458 | 0.443 | 0.937 | 0.376 | 0.651 | 0.535 | 0.855 | 0.6 | 0.616
RFVTRHIFNRE [HLA-DQB1_Y62_Y62H_YF] | 0.843 | 0.482 | 0.314 | 0.584 | 0.658 | 0.43 | 1.12 | 0.651 | 0.431 | 0.766 | 0.583 | 0.719 | 0.62 | 0.443 | 0.721 | 0.293
ADLLVYIKALN [HPRT1_Y81_D80V] | 1.11 | 0.644 | 0.628 | 0.512 | 0.935 | 0.511 | 1.48 | 0.455 | 0.657 | 1.23 | 0.349 | 0.939 | 0.471 | 0.949 | 0.681 | 0.511
NVADHYGVFKP [ATP6V0D2_Y271_YF] | 0.557 | 0.3 | 0.441 | 0.443 | 0.408 | 0.455 | 0.691 | 4.49 | 3.18 | 0.404 | 0.435 | 0.538 | 4.14 | 1.06 | 0.96 | 0.717
AHARMYGVLPW [PLP1_Y207_D203H] | 0.496 | 0.519 | 0.462 | 0.503 | 0.421 | 0.402 | 0.617 | 2.35 | 3.4 | 0.478 | 0.507 | 0.58 | 2.35 | 1.05 | 1.19 | 0.49
NPSFNYEIVNR [DYNC1H1_Y3379_YF] | 1.15 | 2.91 | 1.29 | 0.488 | 0.666 | 0.514 | 1.19 | 0.445 | 0.535 | 1.1 | 0.387 | 0.588 | 0.388 | 0.825 | 0.753 | 0.574
LDTSQYFRLFN [CPT2_Y217_M214T] | 0.824 | 0.673 | 0.522 | 1.47 | 1.36 | 0.498 | 0.784 | 0.413 | 0.61 | 4.85 | 0.532 | 0.617 | 0.535 | 0.96 | 1.98 | 0.472
NACGLYHKMNG [GATA5_Y216] | 0.795 | 0.508 | 0.447 | 0.581 | 0.567 | 0.673 | 1.03 | 0.371 | 0.533 | 0.798 | 0.624 | 0.525 | 0.523 | 0.81 | 0.945 | 1.95
RHTRSYDYMEG [FGF7_Y56] | 0.609 | 0.534 | 0.92 | 0.7 | 0.529 | 0.533 | 0.958 | 0.561 | 0.716 | 0.513 | 0.628 | 0.552 | 0.389 | 1.33 | 1.06 | 3.83
FEPDAYDDLDQ [ELP5_Y302_YF] | 1.29 | 0.624 | 0.684 | 0.573 | 0.704 | 0.6 | 1.3 | 0.574 | 0.571 | 1.27 | 0.57 | 0.731 | 0.41 | 1.03 | 0.807 | 0.623
